Experimental data: paper doi:10.1101/2022.06.20.496707
Read-outs that look alike come from different tables or passages of the source.

Legend:
[1] = molecular target: Serratia NucC (type III-A CRISPR-Cas-associated accessory nuclease of Serratia sp. ATCC 39006) (Serratia sp. ATCC 39006); assay: crystal structure
[2] = molecular target: Serratia NucC (type III-A CRISPR-Cas-associated accessory nuclease of Serratia sp. ATCC 39006) (Serratia sp. ATCC 39006); assay: crystal structure; remark: listed apart in the source

“Serratia NucC (type III-A CRISPR-Cas-associated accessory nuclease of Serratia sp. ATCC 39006) (enzyme)” gave a stoichiometry N [1] of 6 and a stoichiometry N [2] of 6.
